{"source": "patent US20230192839A1", "about": "“ANTIBODIES HAVING CONDITIONAL AFFINITY AND METHODS OF USE THEREOF” (PFIZER INC., priority 2017, published 2023)", "molecules": {"B1": {"name": "P02_D09: anti-CD33 clone with conditional affinity; VH SEQ ID NO: 35, VL SEQ ID NO: 36; also as scFv in CAR (antibody, V domains shown)", "VH": "QVQLVESGGGLVQAGGSLRLSCAASRRSSRSWAMHWVRQAPGKGLEWVAVISYDGRLKYYADSVKGRFTISRDNAEYLVYLQMNSLRAEDTAVYYCAAEEGDGGFFDYWGQGTLVTVSS", "VL": "QSVLTQPPSASGTPGQRVTISCSGSSSNIGSNYVNWYQQLPGTAPKLLIYRNNERPSGVPDRFSGSKSGTSASLAISGLRSEDEADYYCAAWDGSLSGRGVFGTGTKLTVL", "modifications": "Synthetic Antibody", "notes": "also as scFv in CAR"}}, "key": {"MV4-11 cells [1]": {"system": "MV4-11 cells", "test": "Sequential rounds of in vitro cytotoxicity assays with changing MTX concentration (reversible inhibition)", "format": "cell-based, human", "details": "Round 0-1 no MTX, then 100 µM MTX at Round 1-2 and Round 2-3; FIGS. 9A and 9B", "description": "The anti-CD33 clones tested in this example were: P03_A01, P07_C04, and P02_D09. In addition, a tool T cell was prepared as described in Example 4, as were untransduced T cells. Also, each of the different conditional CAR T cells described above was generated in triplicate from PBMC cells from three different human donors. The target cell line used in this assay was MV4-11; these cells were transduced to stably express GFP and firefly luciferase, as described in Example 5.\nThis experiment involved a series of in vitro cytotoxicity assays, in which co-cultures of T cells and MV4-11 target cells were incubated together for multiple rounds of sequential cytotoxicity assays, in which the MTX concentration changed at different rounds of the assays. In vitro cytotoxicity assays were carried out in 24-well plates by co-culturing 200,000 T cells with 200,000 MV4-11 cells, for each different T cells described above. In addition, each of the co-cultures contained either 100 µM MTX or 0 µM MTX at different times, as indicated by the schematics in FIGS. 9A and 9C. In both conditions, 1 mM leucovorin was supplemented to circumvent MTX toxicity. For each round of the assay, co-cultures were maintained in a final volume of 500 µl of RPMI 1640 medium at 37 C with 5% CO2 for 48 hours. At the end of each round, cells were spun down (250 × g, 10 minutes), supernatant was removed, and fresh media containing fresh MV4-11 cells, leucovorin, and optionally MTX were added according to the schematics shown in FIGS. 9A and 9C. Target cell killing was assessed and plotted as described in Example 4.\nIn comparing the different panels of FIGS. 9A-9D, note that the schematics shown in FIGS. 9A and 9C indicate the MTX concentration in the co-culture at the start of the assay for a given round, whereas the results from that assay are shown the next round number in FIGS. 9B and 9D, respectively. […]"}, "MV4-11 cells [2]": {"system": "MV4-11 cells", "test": "Flow cytometry analysis of MTX-dependent CAR T cell activation (CD69) and proliferation (CellTrace)", "format": "cell-based, human", "details": "100 µM MTX vs 0 µM MTX, with target cells, FIG. 8", "description": "The anti-CD33 clone used in this example was P02_D09. CAR T cells containing this clone were generated in duplicate from PBMC cells from two different human donors. The target cell line used in this assay was MV4-11, as described in Example 5.\nTo assess activation of the conditional CAR T cells described above, in vitro cytotoxicity assays were carried out in 24-well plates by co-culturing 250,000 CAR T cells, with or without 250,000 MV4-11 cells. In addition, each of the co-cultures contained either 100 µM MTX or 0 µM MTX. In all conditions, 1 mM leucovorin was supplemented to circumvent MTX toxicity. Cells were collected after 24 hours of co-culture, labeled with fluorophore-conjugated antibody to CD69 (Biolegend) and analyzed by flow cytometry (BD LSR II). Activation was quantified via detection of the early activation marker, CD69.\nTo assess proliferative ability of the CAR T cells described above, the cells were prelabelled with the fluorescent intracellular dye, CellTrace Deep Red (Invitrogen), before co-culturing as described immediately above for the CAR T cell activation assay. The co-cultures were incubated for 7 days at 37 C with 5% CO2. On day 7, cells were collected and analyzed via flow cytometry. Dilution of the CellTrace dye (leftward shift of peaks in the histogram) was interpreted as T cell proliferation."}}}
{"molecule": "B1", "values": [{"measurement": "target cell killing when MTX is added to active CAR T cells (\"on\" to \"off\")", "setting": "MV4-11 cells [1]", "result": "quick inhibition rates"}, {"measurement": "activation (CD69) in the presence of MTX", "setting": "MV4-11 cells [2]; 24 hours", "result": "dramatically reduced"}, {"measurement": "proliferation (CellTrace dilution) in the presence of MTX", "setting": "MV4-11 cells [2]; 7 days", "result": "dramatically reduced"}]}
